Results: the Human Domainome abundance scans (Beltran et al. 2025)
± gives the uncertainty stated by the source.

B1: WW domain-binding protein 4, residues 8 to 43; numbered along this chain, O75554 (parent)
chain: QPKKFCDYCKCWIADNRPSVEFHERGKNHKENVAKR

Variants of: B1
Experiment: abundance fitness (aPCA) (normalised: wild type 0, dead -1); higher = more abundant; growth selection in yeast, the domain comes from the species named
Details: Homo sapiens

QPKKFCDYCKCWIADNRPSVEFHYRGKNHKENVAKR [E24Y] and QPKKFCDYCKCWIADNRPSVEFHSRGKNHKENVAKR [E24S] are within error of each other in abundance fitness: -0.183 ± 0.21 for the first, -0.232 ± 0.078 for the second.

Compared with QPKKFCDYCKCWIADNRPSVEFHTRGKNHKENVAKR [E24T], QPKKFCDYCKCWIADNRPSVEFHNRGKNHKENVAKR [E24N] is higher in abundance fitness: -0.549 ± 0.21 for the first, -0.163 ± 0.11 for the second.

QPKKFCDYCKCWIADNRPSVEFHGRGKNHKENVAKR [E24G] and QPKKFCDYCKCWIADNRPSVEFHWRGKNHKENVAKR [E24W] are within error of each other in abundance fitness: -0.364 ± 0.058 for the first, -0.413 ± 0.079 for the second.

First: QPKKFCDYCKCWIADNRPSVEFHERGKNSKENVAKR [H29S]
Second: QPKKFCDYCKCWIADNRPSVEFHERGKNFKENVAKR [H29F]
The abundance fitness of the first is higher: -0.542 ± 0.083 for the first, -1 ± 0.32 for the second.

QPKKFCDYCKCWIADNRPSVEFHERGKNNKENVAKR [H29N] and QPKKFCDYCKCWIADNRPSVEFHERGKNVKENVAKR [H29V] are within error of each other in abundance fitness: -0.444 ± 0.099 for the first, -0.349 ± 0.12 for the second.

First: QPKKFCDYCKCWIADNRPSVEFHERGKNAKENVAKR [H29A]
Second: QPKKFCDYCKCWIADNRPSVEFHERGKNYKENVAKR [H29Y]
The abundance fitness of the first is higher: -0.309 ± 0.096 for the first, -0.736 ± 0.18 for the second.

QPKKFCDYCKCWIADNRPSVEFHERGKNCKENVAKR [H29C] and QPKKFCDYCKCWIADNRPSVEFHERGKNKKENVAKR [H29K] are within error of each other in abundance fitness: -0.464 ± 0.25 for the first, -0.562 ± 0.21 for the second.

QPKKFCDYCKCWIADNRPSVEFHERGKNDKENVAKR [H29D] and QPKKFCDYCKCWIADNRPSVEFHERGKNWKENVAKR [H29W] are within error of each other in abundance fitness: -0.995 ± 0.45 for the first, -0.481 ± 0.11 for the second.

QPKKFCDYCKCWIADNRPSVEFHERGKNRKENVAKR [H29R] and QPKKFCDYCKCWIADNRPSVEFHERGKNPKENVAKR [H29P] are within error of each other in abundance fitness: -0.626 ± 0.084 for the first, -0.894 ± 0.46 for the second.

QPKKFCDYCKCWIADNRPSVEFHERGKNQKENVAKR [H29Q] and QPKKFCDYCKCWIADNRPSVEFHERGKNTKENVAKR [H29T] are within error of each other in abundance fitness: -0.656 ± 0.14 for the first, -0.63 ± 0.11 for the second.

QPKKFCDYCKCWIADNRPSVEFHERGKNMKENVAKR [H29M] and QPKKFCDYCKCWIADNRPSVEFHERGKNEKENVAKR [H29E] are within error of each other in abundance fitness: -0.475 ± 0.25 for the first, -0.325 ± 0.11 for the second.

QPKKFCDYCKCWIADNRPSVEFHEEGKNHKENVAKR [R25E] and QPKKFCDYCKCWIADNRPSVEFHEDGKNHKENVAKR [R25D] are within error of each other in abundance fitness: -0.039 ± 0.07 for the first, 0.099 ± 0.095 for the second.

QPKKFCDYCKCWIADNRPSVEFHEVGKNHKENVAKR [R25V] and QPKKFCDYCKCWIADNRPSVEFHEKGKNHKENVAKR [R25K] are within error of each other in abundance fitness: 0.003 ± 0.073 for the first, 0 ± 0.078 for the second.

Going from QPKKFCDYCKCWIADNRPSVEFHETGKNHKENVAKR [R25T] to QPKKFCDYCKCWIADNRPSVEFHEWGKNHKENVAKR [R25W], the abundance fitness falls from 0.014 ± 0.081 to -0.331 ± 0.092.

QPKKFCDYCKCWIADNRPSVEFHEPGKNHKENVAKR [R25P] and QPKKFCDYCKCWIADNRPSVEFHEYGKNHKENVAKR [R25Y] are within error of each other in abundance fitness: -0.428 ± 0.072 for the first, -0.357 ± 0.14 for the second.

QPKKFCDYCKCWIADNRPSVEFHEGGKNHKENVAKR [R25G] and QPKKFCDYCKCWIADNRPSVEFHEMGKNHKENVAKR [R25M] are within error of each other in abundance fitness: 0.039 ± 0.061 for the first, 0.079 ± 0.086 for the second.

First: QPKKFCDYCKCWIADNRPSVEFHECGKNHKENVAKR [R25C]
Second: QPKKFCDYCKCWIADNRPSVEFHEAGKNHKENVAKR [R25A]
The abundance fitness of the first is lower: -0.133 ± 0.097 for the first, 0.078 ± 0.064 for the second.

QPKKFCDYCKCWIADNRPSVEFHESGKNHKENVAKR [R25S] and QPKKFCDYCKCWIADNRPSVEFHEQGKNHKENVAKR [R25Q] are within error of each other in abundance fitness: -0.037 ± 0.073 for the first, 0.049 ± 0.088 for the second.

Compared with QPKKFCDYCKCWIADNRPSVEFHELGKNHKENVAKR [R25L], QPKKFCDYCKCWIADNRPSVEFHERGKRHKENVAKR [N28R] is higher in abundance fitness: -0.106 ± 0.066 for the first, 0.149 ± 0.062 for the second.

Compared with QPKKFCDYCKCWIADNRPSVEFHERGKCHKENVAKR [N28C], QPKKFCDYCKCWIADNRPSVEFHERGKMHKENVAKR [N28M] is higher in abundance fitness: -0.097 ± 0.2 for the first, 0.326 ± 0.16 for the second.

First: QPKKFCDYCKCWIADNRPSVEFHERGKQHKENVAKR [N28Q]
Second: QPKKFCDYCKCWIADNRPSVEFHERGKWHKENVAKR [N28W]
The abundance fitness of the first is lower: -0.087 ± 0.11 for the first, 0.147 ± 0.1 for the second.

QPKKFCDYCKCWIADNRPSVEFHERGKEHKENVAKR [N28E] and QPKKFCDYCKCWIADNRPSVEFHERGKGHKENVAKR [N28G] are within error of each other in abundance fitness: -0.015 ± 0.078 for the first, 0.109 ± 0.081 for the second.

QPKKFCDYCKCWIADNRPSVEFHERGKVHKENVAKR [N28V] and QPKKFCDYCKCWIADNRPSVEFHERGKLHKENVAKR [N28L] are within error of each other in abundance fitness: -0.016 ± 0.088 for the first, 0.046 ± 0.084 for the second.

QPKKFCDYCKCWIADNRPSVEFHERGKSHKENVAKR [N28S] and QPKKFCDYCKCWIADNRPSVEFHERGKPHKENVAKR [N28P] are within error of each other in abundance fitness: -0.001 ± 0.17 for the first, -0.047 ± 0.11 for the second.

First: QPKKFCDYCKCWIADNRPSVEFHERGKFHKENVAKR [N28F]
Second: QPKKFCDYCKCWIADNRPSVEFHERGKTHKENVAKR [N28T]
The abundance fitness of the first is higher: 0.106 ± 0.092 for the first, -0.102 ± 0.11 for the second.

QPKKFCDYCKCWIADNRPSVEFHERGKNHAENVAKR [K30A] and QPKKFCDYCKCWIADNRPSVEFHERGKNHCENVAKR [K30C] are within error of each other in abundance fitness: -0.101 ± 0.069 for the first, 0.022 ± 0.083 for the second.

QPKKFCDYCKCWIADNRPSVENHERGKNHKENVAKR [F22N] and QPKKFCDYCKCWIADNRPSVEPHERGKNHKENVAKR [F22P] are within error of each other in abundance fitness: -0.035 ± 0.17 for the first, -0.061 ± 0.1 for the second.

Compared with QPKKFCDYCKCWIADNRPSVESHERGKNHKENVAKR [F22S], QPKKFCDYCKCWIADNRPSVEMHERGKNHKENVAKR [F22M] is higher in abundance fitness: -0.01 ± 0.075 for the first, 0.235 ± 0.089 for the second.

QPKKFCDYCKCWIADNRPSVEDHERGKNHKENVAKR [F22D] and QPKKFCDYCKCWIADNRPSVELHERGKNHKENVAKR [F22L] are within error of each other in abundance fitness: 0.132 ± 0.17 for the first, 0.051 ± 0.073 for the second.

QPKKFCDYCKCWIADNRPSVEQHERGKNHKENVAKR [F22Q] and QPKKFCDYCKCWIADNRPSVECHERGKNHKENVAKR [F22C] are within error of each other in abundance fitness: 0.238 ± 0.081 for the first, 0.089 ± 0.1 for the second.

Going from QPKKFCDYCKCWIADNRPSVEGHERGKNHKENVAKR [F22G] to QPKKFCDYCKCWIADNRPSVEYHERGKNHKENVAKR [F22Y], the abundance fitness falls from 0.111 ± 0.059 to -0.224 ± 0.12.

QPKKFCDYCKCWIADNRPSVEEHERGKNHKENVAKR [F22E] and QPKKFCDYCKCWIADNRPSVEKHERGKNHKENVAKR [F22K] are within error of each other in abundance fitness: 0.07 ± 0.085 for the first, -0.129 ± 0.12 for the second.

Compared with QPKKFCDYCKCWIADNRPSVERHERGKNHKENVAKR [F22R], QPKKFCDYCKCWIADNRPSVEAHERGKNHKENVAKR [F22A] is higher in abundance fitness: -0.075 ± 0.064 for the first, 0.09 ± 0.08 for the second.

Going from QPKKFCDYCKCWIADNRPSVEIHERGKNHKENVAKR [F22I] to QPKKFCDYCKCWIADNRPSVEVHERGKNHKENVAKR [F22V], the abundance fitness rises from -0.33 ± 0.14 to 0.085 ± 0.056.

For QPKKFCDYCKCWIADNRPSVETHERGKNHKENVAKR [F22T], the abundance fitness was 0.163 ± 0.074.
